Our source for the Vmax and Km values is PMC5453243.

Substrate in this data set: CCn1c(=NN=c2sc3cc(S(=O)(=O)O)ccc3n2CC)sc2cc(S(=O)(=O)O)ccc21
Briefly: purified protein. The conditions noted are these: 1 mM H2O2, 50 mM KH2PO4 pH 6.5, 30 °C.

B1: soluble HRP P. pastoris (Armoracia rusticana) (protein)
chain: QLTPTFYDNSCPNVSNIVRDTIVNELRSDPRIAASILRLHFHDCFVNGCDASILLDNTTSFRTEKDAFGNANSARGFPVIDRMKAAVESACPRTVSCADLLTIAAQQSVTLAGGPSWRVPLGRRDSLQAFLDLANANLPAPFFTLPQLKDSFRNVGLNRSSDLVALSGGHTFGKNQCRFIMDRLYNFSNTGLPDPTLNTTYLQTLRGLCPLNGNLSALVDFDLRTPTIFDNKYYVNLEEQKGLIQSDQELFSSPNATDTIPLVRSFANSTQTFFNAFVEAMDRMGNITPLTGTQGQIRLNCRVVNSNS
Consider B1, for which the maximal velocity (Vmax) (in general, the rate approached at saturating substrate) stood at 152 µmol/min/mg.

B2: refolded HRP E. coli (HRP C1A refolded from inclusion bodies) (Armoracia rusticana) (protein)
chain: QLTPTFYDNSCPNVSNIVRDTIVNELRSDPRIAASILRLHFHDCFVNGCDASILLDNTTSFRTEKDAFGNANSARGFPVIDRMKAAVESACPRTVSCADLLTIAAQQSVTLAGGPSWRVPLGRRDSLQAFLDLANANLPAPFFTLPQLKDSFRNVGLNRSSDLVALSGGHTFGKNQCRFIMDRLYNFSNTGLPDPTLNTTYLQTLRGLCPLNGNLSALVDFDLRTPTIFDNKYYVNLEEQKGLIQSDQELFSSPNATDTIPLVRSFANSTQTFFNAFVEAMDRMGNITPLTGTQGQIRLNCRVVNSNS
Consider B2, for which, where the note is “ABTS 0.005–10 mM”, the Km (as a rule, the concentration of substrate that gives half-maximal velocity) worked out at 1250 ± 100 µM and the Vmax is 62.5 µmol/min/mg.
